From the supplement of paper PMC9732359
± gives the uncertainty stated by the source.

Experiment: protein stability index of a GFP-peptide fusion (yeast GPS) (PSI 1-4); higher = more stable; sorted into four equal gates, so the index is relative within each strain
Conditions: doa10∆
Procedure, shortened: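 Sequencing reads from sorted gates were used to score each peptide. The library consisted of tiled 17-residue yeast protein peptides fused downstream of GFP on a Cherry-expressing plasmid, pooled and carried in yeast. Mid-log cultures in leucine-free medium were split into four equal gates by GFP/Cherry ratio, and each gate's plasmids were PCR-amplified and Illumina-sequenced. The protein stability index adds up, over all gates, the read frequency multiplied by the gate number.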
Sequence LVASAKGLQTVVVEEDA [RPL31A] has a protein stability index of 2.48 ± 0.091. Work on LVDDENEPSQSLISTRN [BRN1] yielded a protein stability index of 3.22 ± 0.058. LVELMFIRSTNSWFDVT [FAS1] gave a protein stability index of 1.65 ± 0.092. With LVETCLNDLVESSFIEI [BRR2] the protein stability index was 3.03 ± 0.053. With LVFILAVVGNNMLLDPA [RRP42] the protein stability index was 1.56 ± 0.088. Work on LVLDLLTWLSSFSVCKI [IRR1] yielded a protein stability index of 2.21 ± 0.06. Work on LVLGEVSKKELYAIKKV [BRR2] yielded a protein stability index of 1.68 ± 0.073. With LVQLFLWDSKELEQLVE [RPN3] the protein stability index was 2.64 ± 0.13. In the case of LVSDSEIIDLNLHSFTK [POP6], the protein stability index is reported as 2.62 ± 0.072. In the case of LVSVVEAFIASGITDPY [FAS2], the protein stability index is reported as 1.42 ± 0.041. With LVTCEGSEEKAFVPKKR [SRP54] the protein stability index was 2.19 ± 0.12. Work on LVVIRFGRKNDRQCMIM [DIB1] yielded a protein stability index of 2.4 ± 0.061. Work on LWELALAFIPNILALNL [YML031W/NDC1] yielded a protein stability index of 2.01 ± 0.069. In the case of LYKLNDKIAVAVAGLTA [PRE9], the protein stability index is reported as 2.29 ± 0.056. LYQIDYLGTKVELPYGA [PRE1] showed a protein stability index of 1.72 ± 0.089. With LYRLSTPLRDEVTDKNY [PRP8] the protein stability index was 3.13 ± 0.096. Work on LYSVKFAPAHLGLKLAC [YGL100W/SEH1] yielded a protein stability index of 2.73 ± 0.074. Sequence MAAEKILTPESQLKKSK [RPL7A] has a protein stability index of 3.07 ± 0.11. Sequence MAGKVLILTSHNMKAYY [BRR2] has a protein stability index of 2.1 ± 0.06. In the case of MAKQLIRLANESSELNK [CSN12], the protein stability index is reported as 3 ± 0.08. MAKRTKKVGITGKYGVR [RPL43A] gave a protein stability index of 3.36 ± 0.11. Sequence MAMNITPRLYTDRSRDF [RPB2] has a protein stability index of 2.93 ± 0.089. Work on MAQRVTFRRRNPYNTRS [RPL34A] yielded a protein stability index of 1.55 ± 0.043. MARGPKKHLKRLAAPHH [RPS4A] showed a protein stability index of 2.9 ± 0.13. MATNKIETLDPALIRPG [RPT2] gave a protein stability index of 3.23 ± 0.1. With MAVGKNKRLSRGKKGLK [RPS1B] the protein stability index was 1.49 ± 0.13. For MCHIVRKFHELNDHIDD [GRR1], the protein stability index was 2.13 ± 0.053. MDAYSTRPLTLSHGSLE [FAS1] showed a protein stability index of 3.18 ± 0.11. For MDEMDNVIRSLEQEYRL [RMP1], the protein stability index was 1.81 ± 0.064. In the case of MDFFNLNNNNNNNNTTT [SWI1], the protein stability index is reported as 2.97 ± 0.072. Sequence MDFLNSMENTPKVPVSA [GAL11] has a protein stability index of 2.42 ± 0.094. MDQDNNNHNDSNRLHPP [GRR1] showed a protein stability index of 2.73 ± 0.062. MDVDIGCYFEEKRYDDK [CSN12] showed a protein stability index of 3.42 ± 0.087. With MEGDDLFDEFGNLIGVD [SNU114] the protein stability index was 3.37 ± 0.2. MEQCKQRYQDLSQQQKD [YIL149C/MLP2] gave a protein stability index of 3.33 ± 0.086. For MEWPKDMLKYKEDEPVV [ITC1], the protein stability index was 2.75 ± 0.27. In the case of MFANMKVLGVKDMSPIL [LRP1], the protein stability index is reported as 1.84 ± 0.069. For MFDAFVSFYFEDGTIES [SIN4], the protein stability index was 2.33 ± 0.078. MGEAQTGANFDDVERGV [REC8] gave a protein stability index of 3.37 ± 0.093. Work on MGKSHGYRSRTRYMFQR [RPL21A] yielded a protein stability index of 3.15 ± 0.094. For MGLGKTLQTISFLGYLR [ISW2], the protein stability index was 2.45 ± 0.044. MGNTKVHCRISCQIAQP [RRP45] gave a protein stability index of 1.64 ± 0.059. Sequence MHLMALHIHGSSNPLGI [COB] has a protein stability index of 2.31 ± 0.07. With MKLDDSSKTRNVLNRIQ [ITC1] the protein stability index was 1.78 ± 0.082. MKPKAEKESDDGLLEYL [SMC4] gave a protein stability index of 3.58 ± 0.17. MKRADKFKDMGIRAPKG [RPT5] gave a protein stability index of 2.89 ± 0.1. MKSLLTELSNKETTIEK [YIL149C/MLP2] gave a protein stability index of 3.23 ± 0.13. In the case of MKTQRFVSNMGFDIQKS [SIR4], the protein stability index is reported as 2.63 ± 0.069. For MKYTQYPNSSKLKRNSD [LIN1], the protein stability index was 3.17 ± 0.089. Work on MKYVRETSGVTTALLKD [MED8] yielded a protein stability index of 2.72 ± 0.099. In the case of MLGHYLGEFSITYTPVR [RPS15], the protein stability index is reported as 2.27 ± 0.19. Sequence MLPPKSVKFTHIAHTLP [SSN2] has a protein stability index of 1.57 ± 0.073. MNAILTDVKLTLPQPRL [SMD1] gave a protein stability index of 2.98 ± 0.079. In the case of MNLQNNVLNQIHQILLP [CSE2], the protein stability index is reported as 2.73 ± 0.062. Sequence MNNGSGRYLLTPPDDLH [SRB8] has a protein stability index of 2.41 ± 0.06. MNVTPLDELQWKSPEWI [MED6] showed a protein stability index of 3.1 ± 0.13. With MPGMPNMPGMPKVTPQM [SRP54] the protein stability index was 3.06 ± 0.17. MPGSQINSPMPQQAQMQ [SNF2] showed a protein stability index of 2.9 ± 0.081. In the case of MQIFVKTLTGKTITLEV [RPS31], the protein stability index is reported as 2.48 ± 0.17. In the case of MRLIKRVRAESLHSNSF [YJL039C/NUP192], the protein stability index is reported as 2.12 ± 0.11. For MRRNSKILNIIKCSQSS [POP5], the protein stability index was 1.92 ± 0.049. For MRSKLEKLTLVTLSEIY [CSN9], the protein stability index was 1.56 ± 0.05. MSACVGQQSVEGKRIAF [RPO21] showed a protein stability index of 2.27 ± 0.26. With MSDFVPIDAGLNEAPFP [MCD1] the protein stability index was 3 ± 0.07. For MSDSPLSKRQKRKSAQE [SMC4], the protein stability index was 3.46 ± 0.17. Work on MSEEQDPLLAGLGETSG [RPT4] yielded a protein stability index of 2.91 ± 0.24. For MSLEPTQTVSGTPPMLH [DSN1], the protein stability index was 2.78 ± 0.14. For MSLTTAAPLLALLRENQ [RPN2], the protein stability index was 2.6 ± 0.19. Work on MSTKAQNPMRDLKIEKL [RPL11B] yielded a protein stability index of 3.36 ± 0.16. In the case of MTIDLEPIEESSQNNSE [IRR1], the protein stability index is reported as 2.94 ± 0.068. Work on MTQRAIQSAESIKSQKE [SWI3] yielded a protein stability index of 2.27 ± 0.12. With MTRSSVLADALNAINNA [RPS22A] the protein stability index was 2.86 ± 0.052. MTSENPDVLLSRVINVV [RRP6] gave a protein stability index of 1.39 ± 0.12. In the case of MVGLVDPDKLKPNDLVG [RPT5], the protein stability index is reported as 2.87 ± 0.097. With MVKGLLKSFTESTAGSA [ECM29] the protein stability index was 3.34 ± 0.26. For MVQQLSLFGSIGDDGYD [SRB5], the protein stability index was 3.17 ± 0.1. Sequence MVSHKTARGKAALERLK [RPL16B] has a protein stability index of 2.92 ± 0.21. In the case of MYILGMCVSKGNASLKY [YCG1], the protein stability index is reported as 1.79 ± 0.083. In the case of NAELLDYLFHLLISLNI [YLR018C/POM34], the protein stability index is reported as 1.79 ± 0.044. In the case of NAKDKERLQLLEDVVGA [SMC3], the protein stability index is reported as 3.32 ± 0.19. NAKESNYTDLIWFPEDF [MED1] showed a protein stability index of 3.06 ± 0.094. For NALTVGDFDKFDSLIKV [RPN9], the protein stability index was 2.14 ± 0.13. NAVTAAAANNNIKPVEQ [GAL11] showed a protein stability index of 2.66 ± 0.064. Sequence NCPHSDSTQLLETILEE [SSN2] has a protein stability index of 2.81 ± 0.1. For NDFANNLPKEGDIVLTR [CSL4], the protein stability index was 2.89 ± 0.15. NDLRDMILNYNPSQGVS [UBP6] gave a protein stability index of 2.21 ± 0.072. With NDNNLKKLESQESLVKL [RPN5] the protein stability index was 3.01 ± 0.071. With NDRKQTTVSNDLENSPL [SSN2] the protein stability index was 2.98 ± 0.079. Sequence NEAEQVYLSLLDKDSSQ [RPN6] has a protein stability index of 3.03 ± 0.2. Work on NEEATPIPSSETKADGI [RRP6] yielded a protein stability index of 3.04 ± 0.053. Work on NEGLVEYIDAEEEESIL [RPB2] yielded a protein stability index of 3.36 ± 0.081. For NEIANSIIQSKQDCVDW [BRR2], the protein stability index was 2.61 ± 0.069. NENENFGYDIPLLDIVL [YML103C/NUP188] showed a protein stability index of 2.48 ± 0.053. NENETRDKVCKQINEAR [PGD1] showed a protein stability index of 3.14 ± 0.14. Sequence NENSNCLLSIPKSTKGK [YML103C/NUP188] has a protein stability index of 2.04 ± 0.05. In the case of NESSSNTTVISDKQRRL [DIS3], the protein stability index is reported as 3.15 ± 0.086. Sequence NFEAVFERLVPRGTAKL [SMC3] has a protein stability index of 2.93 ± 0.15. NFEKILLTCYELEKKYH [SRB8] showed a protein stability index of 1.98 ± 0.1. In the case of NFKGLAKEKERMLEEAI [YIL149C/MLP2], the protein stability index is reported as 3.4 ± 0.095.

Same assay, conditions: pdr5∆
LVASAKGLQTVVVEEDA [RPL31A] showed a protein stability index of 2.51 ± 0.1.
